For assay [1], the target named is GST-ctβ382-401 Y390F (mouse | not stated) (UniProt P09690). Put plainly: far-Western, overlay or dot blot.
For assay [2], the target named is acetylcholine receptor containing beta subunit phosphorylated at Y390 (mouse (endogenous in myotubes)) (UniProt P04756). Put plainly: co-IP.

Our source for the % of binding to β382-401 WT (% of binding to β382-401 WT) and fold rapsyn associated, against AChR with non-phosphorylated β subunit values is PMC2606670.

Sequence of UniProt P04756 (P04756 21-457, chain 1 of 4): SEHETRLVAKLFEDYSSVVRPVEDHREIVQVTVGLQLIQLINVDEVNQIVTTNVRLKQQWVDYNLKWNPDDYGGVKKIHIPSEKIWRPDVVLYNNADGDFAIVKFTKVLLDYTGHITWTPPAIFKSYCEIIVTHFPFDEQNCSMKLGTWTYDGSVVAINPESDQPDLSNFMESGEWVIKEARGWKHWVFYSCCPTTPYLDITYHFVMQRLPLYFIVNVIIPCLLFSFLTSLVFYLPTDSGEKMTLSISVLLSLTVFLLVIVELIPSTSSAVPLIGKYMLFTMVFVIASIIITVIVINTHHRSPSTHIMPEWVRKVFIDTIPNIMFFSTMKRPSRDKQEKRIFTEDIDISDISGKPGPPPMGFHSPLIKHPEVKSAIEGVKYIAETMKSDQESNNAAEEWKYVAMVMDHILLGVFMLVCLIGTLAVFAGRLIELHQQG
Sequence of UniProt P04756 (P09690 24-501, chain 2 of 4, further chain): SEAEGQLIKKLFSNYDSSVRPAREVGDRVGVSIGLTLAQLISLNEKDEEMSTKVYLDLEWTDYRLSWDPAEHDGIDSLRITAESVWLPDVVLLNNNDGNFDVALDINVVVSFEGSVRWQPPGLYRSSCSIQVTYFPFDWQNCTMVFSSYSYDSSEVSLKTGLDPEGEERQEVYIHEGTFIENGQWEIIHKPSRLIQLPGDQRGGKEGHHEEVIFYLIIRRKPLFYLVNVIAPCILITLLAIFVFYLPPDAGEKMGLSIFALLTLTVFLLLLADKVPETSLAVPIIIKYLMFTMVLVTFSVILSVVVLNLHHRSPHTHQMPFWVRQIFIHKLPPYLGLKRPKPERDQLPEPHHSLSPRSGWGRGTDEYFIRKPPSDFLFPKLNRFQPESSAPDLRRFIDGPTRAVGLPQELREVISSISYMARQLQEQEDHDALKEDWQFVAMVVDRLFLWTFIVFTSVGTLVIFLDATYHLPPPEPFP
Sequence of UniProt P04756 (P02716 25-520, chain 3 of 4, further chain): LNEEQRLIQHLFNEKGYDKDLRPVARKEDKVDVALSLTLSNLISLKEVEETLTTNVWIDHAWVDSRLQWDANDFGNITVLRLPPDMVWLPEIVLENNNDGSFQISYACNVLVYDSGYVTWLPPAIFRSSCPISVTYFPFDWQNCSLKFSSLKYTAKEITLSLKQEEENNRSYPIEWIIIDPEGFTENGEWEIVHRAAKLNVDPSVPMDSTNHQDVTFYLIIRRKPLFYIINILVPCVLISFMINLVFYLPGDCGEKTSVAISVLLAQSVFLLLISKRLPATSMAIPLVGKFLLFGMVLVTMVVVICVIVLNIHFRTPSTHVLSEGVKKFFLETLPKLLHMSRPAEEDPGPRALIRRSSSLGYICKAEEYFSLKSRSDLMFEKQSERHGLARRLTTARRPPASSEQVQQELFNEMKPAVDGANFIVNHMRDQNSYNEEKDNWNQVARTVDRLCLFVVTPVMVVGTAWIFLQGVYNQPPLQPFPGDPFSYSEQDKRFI
Sequence of UniProt P04756 (P04760 23-519, chain 4 of 4, further chain): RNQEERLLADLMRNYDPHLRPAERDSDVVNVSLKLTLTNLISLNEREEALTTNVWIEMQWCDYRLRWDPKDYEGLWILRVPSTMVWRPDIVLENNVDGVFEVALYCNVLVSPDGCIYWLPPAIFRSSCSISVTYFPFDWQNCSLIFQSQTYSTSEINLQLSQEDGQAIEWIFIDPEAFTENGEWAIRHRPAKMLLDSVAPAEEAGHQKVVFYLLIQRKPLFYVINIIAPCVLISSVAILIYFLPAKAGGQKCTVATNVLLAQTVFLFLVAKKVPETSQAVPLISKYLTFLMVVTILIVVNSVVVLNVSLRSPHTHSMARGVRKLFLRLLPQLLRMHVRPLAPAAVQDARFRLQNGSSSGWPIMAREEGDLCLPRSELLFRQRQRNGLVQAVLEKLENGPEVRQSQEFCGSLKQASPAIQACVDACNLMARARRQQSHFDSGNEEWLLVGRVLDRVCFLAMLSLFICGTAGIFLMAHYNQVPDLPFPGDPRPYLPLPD

B1: GST-rapsyn (natural protein)
chain: MGQDQTKQQIEKGLQLYQSNQTEKALQVWMKVLEKGSDLVGRFRVLGCLVTAHSEMGRYKEMLKFAVVQIDTARGLEDADFLLESYLNLARSNEKLCEFHKTISYCKTCLGLPGTRAGAQLGGQVSLSMGNAFLGLSLFQKALESFEKALRYAHNNDDTMLECRVCCSLGSFYAQVKDYEKALFFPCKAAELVNDYGKGWSLKYRAMSQYHMAVAYRLLGHLGSAMECCEESMKIALQHGDRPLQALCLLCFADIHRSRGDLETAFPRYDSAMSIMTEIGNRLGQVHVLLGVAKCWMARKVQDKALDAIEKAQDLAEEVGNKLSQLKLHCLSESIYRSKGLQRELRTHVVRFHECVEETELYCGLCGESIGERNSRLQALPCSHIFHLRCLQNNGTRSCPNCRRSSMKPGFV
In assay [1], B1 displayed a % of binding to β382-401 WT (% of binding to β382-401 WT) of 92.

B2: rapsyn, endogenous in mouse myotubes (natural protein)
chain: B1 chain
The molecule B2 registered a fold rapsyn associated, against AChR with non-phosphorylated β subunit in assay [2] of 2.3 fold.
